The results in this text go back to article PMC12089419, “Synergistic regulation of DACH1 stability by acetylation and deubiquitination promotes colorectal cancer progression” (Cell Death & Disease, 2025).

The target in this test is T1, GST-USP7 (UniProt Q93009 1-1102).
T1 construct: USP7, cloned in pGEX-4T-1; also called GST-tagged USP7; source: plasmid in pGEX-4T-1
The experiment in a line: pull-down; purified DACH1 incubated with GST or GST-USP7 conjugated with GSH-Sepharose, followed by Coomassie blue staining. The following applies: both partners purified.

T1 sequence (Q93009 whole entry): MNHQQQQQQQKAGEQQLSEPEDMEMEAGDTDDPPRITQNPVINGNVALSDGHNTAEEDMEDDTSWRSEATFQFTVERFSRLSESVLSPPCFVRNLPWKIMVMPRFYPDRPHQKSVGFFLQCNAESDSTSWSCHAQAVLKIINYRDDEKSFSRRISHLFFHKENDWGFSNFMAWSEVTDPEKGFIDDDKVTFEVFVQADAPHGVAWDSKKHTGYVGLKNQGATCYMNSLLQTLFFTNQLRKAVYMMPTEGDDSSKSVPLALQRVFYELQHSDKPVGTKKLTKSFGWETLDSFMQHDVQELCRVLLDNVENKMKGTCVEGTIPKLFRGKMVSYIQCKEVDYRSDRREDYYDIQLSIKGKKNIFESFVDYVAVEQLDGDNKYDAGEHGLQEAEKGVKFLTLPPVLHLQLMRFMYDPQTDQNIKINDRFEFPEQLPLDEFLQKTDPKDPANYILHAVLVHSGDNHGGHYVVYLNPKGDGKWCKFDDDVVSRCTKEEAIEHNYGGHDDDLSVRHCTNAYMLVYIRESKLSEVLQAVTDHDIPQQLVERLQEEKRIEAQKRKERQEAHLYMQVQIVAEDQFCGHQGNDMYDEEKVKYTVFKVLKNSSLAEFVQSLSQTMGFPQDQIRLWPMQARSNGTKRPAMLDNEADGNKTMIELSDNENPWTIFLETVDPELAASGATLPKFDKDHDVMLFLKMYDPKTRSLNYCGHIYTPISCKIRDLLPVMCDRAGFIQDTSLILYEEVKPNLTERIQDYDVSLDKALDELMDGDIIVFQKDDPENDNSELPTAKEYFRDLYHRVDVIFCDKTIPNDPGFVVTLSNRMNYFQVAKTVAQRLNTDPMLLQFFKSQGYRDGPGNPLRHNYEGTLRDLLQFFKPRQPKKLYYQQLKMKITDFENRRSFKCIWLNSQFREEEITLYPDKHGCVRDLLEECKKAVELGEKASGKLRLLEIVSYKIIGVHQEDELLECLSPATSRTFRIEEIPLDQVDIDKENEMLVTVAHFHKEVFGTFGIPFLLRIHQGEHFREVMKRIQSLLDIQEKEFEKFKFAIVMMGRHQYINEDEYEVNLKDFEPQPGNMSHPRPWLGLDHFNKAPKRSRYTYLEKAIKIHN

B1: Myc-DACH1-FL (natural protein, human, UniProt Q9UI36 1-758, looked up)
chain: MAVPAALIPPTQLVPPQPPISTSASSSGTTTSTSSATSSPAPSIGPPASSGPTLFRPEPIASAAAAAATVTSTGGGGGGGGSGGGGGSSGNGGGGGGGGGGSNCNPNLAAASNGSGGGGGGISAGGGVASSTPINASTGSSSSSSSSSSSSSSSSSSSSSSSSCGPLPGKPVYSTPSPVENTPQNNECKMVDLRGAKVASFTVEGCELICLPQAFDLFLKHLVGGLHTVYTKLKRLEITPVVCNVEQVRILRGLGAIQPGVNRCKLISRKDFETLYNDCTNASSRPGRPPKRTQSVTSPENSHIMPHSVPGLMSPGIIPPTGLTAAAAAAAAATNAAIAEAMKVKKIKLEAMSNYHASNNQHGADSENGDMNSSVGSSDGSWDKETLPSSPSQGPQASITHPRMPGARSLPLSHPLNHLQQSHLLPNGLELPFMMMPHPLIPVSLPPASVTMAMSQMNHLSTIANMAAAAQVQSPPSRVETSVIKERVPDSPSPAPSLEEGRRPGSHPSSHRSSSVSSSPARTESSSDRIPVHQNGLSMNQMLMGLSPNVLPGPKEGDLAGHDMGHESKRMHIEKDETPLSTPTARDSLDKLSLTGHGQPLPPGFPSPFLFPDGLSSIETLLTNIQGLLKVAIDNARAQEKQVQLEKTELKMDFLRERELRETLEKQLAMEQKNRAIVQKRLKKEKKAKRKLQEALEFETKRREQAEQTLKQAASTDSLRVLNDSLTPEIEADRSGGRTDAERTIQDGRLYLKTTVMY
notes: DACH1, human, full length (FL), cloned in pcDNA3.1 or a lentiviral plasmid; the text calls it Myc-tagged DACH1; also called Myc-tagged DACH1; Myc-tagged FL DACH1; source: HEK293T or SW480, transfected, in lysate; HCT8, stably expressed, whole cell extracts
Regarding B1, the binding result is “binds”.
